Results on 1 substance are retold here after publication PMC2172933.

For this experiment, the target named is neural cell adhesion molecule 140 (NCAM140), rat, expressed in CHO cells (rat) (UniProt P13596). Description: co-IP.
UniProt P13596, sequence (P13596 20-858): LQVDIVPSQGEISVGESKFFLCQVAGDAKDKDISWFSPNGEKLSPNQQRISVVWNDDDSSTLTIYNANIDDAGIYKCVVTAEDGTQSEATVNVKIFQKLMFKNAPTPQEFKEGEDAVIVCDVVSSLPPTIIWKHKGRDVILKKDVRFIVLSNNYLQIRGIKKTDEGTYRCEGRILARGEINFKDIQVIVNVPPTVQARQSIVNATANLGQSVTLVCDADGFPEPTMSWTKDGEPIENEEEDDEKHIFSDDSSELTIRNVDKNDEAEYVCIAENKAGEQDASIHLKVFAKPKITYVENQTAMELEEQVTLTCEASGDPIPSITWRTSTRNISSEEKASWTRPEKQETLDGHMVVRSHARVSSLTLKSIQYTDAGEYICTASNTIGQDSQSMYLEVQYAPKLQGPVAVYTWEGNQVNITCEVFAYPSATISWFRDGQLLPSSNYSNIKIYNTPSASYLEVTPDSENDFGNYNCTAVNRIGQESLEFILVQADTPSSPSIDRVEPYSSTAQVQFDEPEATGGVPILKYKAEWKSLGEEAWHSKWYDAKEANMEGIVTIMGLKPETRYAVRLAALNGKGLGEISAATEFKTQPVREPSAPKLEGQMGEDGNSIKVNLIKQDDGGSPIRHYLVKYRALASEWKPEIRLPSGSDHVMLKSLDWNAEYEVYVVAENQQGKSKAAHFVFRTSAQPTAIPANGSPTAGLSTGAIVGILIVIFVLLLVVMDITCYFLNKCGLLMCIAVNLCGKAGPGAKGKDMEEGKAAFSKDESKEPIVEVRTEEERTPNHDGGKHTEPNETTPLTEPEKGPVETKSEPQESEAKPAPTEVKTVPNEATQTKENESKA

“βI spectrin, endogenous in CHO cells, A0A9J7GYU9 1-2329” displayed a percent of the amount of spectrin that coprecipitated with NCAM180 (set to 100%) of 69.8%.
